# US20110014669A1, “Production of 1,4 Butanediol in a Microorganism” (Microbia, Inc., priority 2009, published 2011)
# Where two headings read alike, the source gives them in different places.
# Columns and labels:
# [1] = system: Zymomonas mobilis (ATCC 31821); conditions: 90 g/L and 135 g/L of BDO
# Procedure: (§4) For each experiment, 50 mL of media was filter-sterilized before adding to pre-sterilized 250 mL triple baffled shake flasks. […] Each strain was grown in four different shake flasks.
# (§5) Inocula were freshly grown on agar plates, cotton swabbed into a sterile Falcon® tube containing the same medium used in the shake flask and mixed well. The cell suspension was then inoculated into the prepared shake flasks to initiate the growth evaluation. The growth for each strain was monitored by measuring the OD (at 660 nm) and pH over the time course. If the medium contained glucose, such as Difco® Yeast Malt medium (YM), glucose concentration was monitored by using a YSI 2700 Select Biochemistry Analyzer.
# (§6) Since different media and growth conditions were used, results were expressed as % of growth where the control, no BDO flask, represented 100% growth.
# [2] = system: Zygosaccharomyces bailii (ATCC 60594)
# [3] = system: S. cerevisiae strains (CEN.PK and Fermentis); conditions: 135 g/L of BDO
# Procedure: as §4, §5, §6
# [4] = system: Pseudomonas putida (ATCC 700801)
# Procedure: as §4, §5, §6
# [5] = system: Corynebacterium glutamicum (ATCC 13032); conditions: FIG. 12A
# Procedure: as §4, §5, §6
# [6] = system: Yarrowia lipolytica (ATCC 20228)
# 4-hydroxybutanal = assay: Enzyme assay, oxidoreductase (step A6), cell lysates; format: biochemical; set-up: key: +: measureable activity detected in the assay; −: no measurable activity detected in the assay; conditions: BDO biosynthetic pathway step A6
# Procedure: (§1) Enzyme expression and crude lysate preparation. The enzymatic activity of each candidate enzyme is evaluated, first in E. coli and subsequently in C. glutamicum. It will be apparent to one of skill in the art that the expression and lysate preparations may need to be modified depending on the host cell and recombinant gene of interest.
# E. coli: E. coli strains transformed with expression clones, for example, pUC18 or MB4124 based clones having a medium strong constitutive promoter regulating the recombinant gene of interest, are grown aerobically in LB medium (Difco) containing the appropriate antibiotic(s). At an OD600 of 0.5, IPTG is added to a final concentration of 0.25 mM. The cultures are grown to a final OD600 of 1.5 at which time the cells are collected and harvested by centrifugation. Cell pellets are resuspended in BugBuster (Novagen) reagent containing benzonase and lysozyme. Alternatively, E. coli strains transformed with expression clones, are grown overnight aerobically at 37° C. in BHI containing the appropriate antibiotic(s). 300 μL of fresh overnight culture is used to inoculate 2.7 mL BHI containing 0.25 mM IPTG and the appropriate antibiotic. The cultures are grown aerobically for 4-5 hours at 37° C. at which time the cells are collected and harvested by centrifugation. Cell pellets are frozen at −80° C. for at least 15 minutes, then thawed and resuspended in BugBuster (Novagen) reagent. Lysis and lysate collection are performed according to the manufacturer's instructions and, for example, may involve use of a sonicator and/or French press. Cleared lysates are stored on ice until enzyme assays are performed. […]
# (§2) Protein Assays. Protein concentrations in lysates are determined according to the methods of Bradford et al. (Anal. Biochem. 72:248-254 [1976]) or by the method of Smith et al. (Anal. Biochem. 150(1):76-85 [1985]) and lysates are assayed according to the methods below. […]
# [7] = system: L-glutamate 5-semialdehyde (GSA); assay: Bioconversion (feeding) assay, step A3; format: cell-based; set-up: key: +: measureable activity detected in the assay; −: no measurable activity detected in the assay; conditions: BDO biosynthetic pathway step A3
# Procedure: Bioconversion assays. The activity of a candidate enzyme towards a given substrate can also be evaluated in vivo using a simple feeding assay. A strain expressing the candidate enzyme is grown in the presence of the substrate for which activity is desired. Samples of the culture are removed periodically and the cells are removed via centrifugation. The culture supernatant is then analyzed (e.g., by LC-MS) to determine how much of the substrate has been removed and how much of a given product is present.
# (§3) The aldehyde dehydrogenase linked reaction was used for step A5.
# [8] = system: L-glutamate 5-semialdehyde (GSA); assay: Enzyme assay, oxidoreductase (step A3), cell lysates; format: biochemical; set-up: key: +: measureable activity detected in the assay; −: no measurable activity detected in the assay; conditions: BDO biosynthetic pathway step A3
# Procedure: as §1
# E. coli: E. coli strains transformed with expression clones, for example, pUC18 or MB4124 based clones having a medium strong constitutive promoter regulating the recombinant gene of interest, are grown aerobically in LB medium (Difco) containing the appropriate antibiotic(s). At an OD600 of 0.5, IPTG is added to a final concentration of 0.25 mM. The cultures are grown to a final OD600 of 1.5 at which time the cells are collected and harvested by centrifugation. Cell pellets are resuspended in BugBuster (Novagen) reagent containing benzonase and lysozyme. Alternatively, E. coli strains transformed with expression clones, are grown overnight aerobically at 37° C. in BHI containing the appropriate antibiotic(s). 300 μL of fresh overnight culture is used to inoculate 2.7 mL BHI containing 0.25 mM IPTG and the appropriate antibiotic. The cultures are grown aerobically for 4-5 hours at 37° C. at which time the cells are collected and harvested by centrifugation. Cell pellets are frozen at −80° C. for at least 15 minutes, then thawed and resuspended in BugBuster (Novagen) reagent. Lysis and lysate collection are performed according to the manufacturer's instructions and, for example, may involve use of a sonicator and/or French press. Cleared lysates are stored on ice until enzyme assays are performed.
# C. glutamicum: C. glutamicum strains transformed with MB4124 expression clones containing the recombinant gene of interest are grown aerobically in BHI broth supplemented with the proper antibiotic(s). At an OD600 of 0.5, IPTG is added to a final concentration of 0.25 mM. The cultures are grown to a final OD600 of 1.5 at which time the cells are collected and harvested by centrifugation. The pellet is washed once in one volume of water and resuspended in lysis buffer (1.0 ml 1.0 M HEPES buffer, pH 7.5, 0.5 ml 1M KOH, 10 μl 0.5M EDTA, protease inhibitor cocktail, water to 5 ml; the final pH will vary depending on the individual enzyme being tested) and one volume of 0.1 mm acid washed glass beads. The mixture is repeatedly alternately vortexed and held on ice for 15 seconds, eight times. After centrifugation for 5 min at 4,000 rpm, the supernatant lysate is removed and respun for 20 min at 10,000 rpm. Alternatively, C. glutamicum strains transformed with MB4124 expression clones containing the recombinant gene of interest are grown aerobically overnight in BHI broth supplemented with the proper antibiotic(s). Five mL of fresh overnight culture is used to inoculate 200 mL BHI containing 0.25 mM IPTG and the appropriate antibiotic. The cultures are grown aerobically at 30° C. for 5-7 hours at which time the cells are collected and harvested by centrifugation at 4° C. The pellet is resuspended in 15 mL ice cold 39 mM KH2PO4, 61 mM K2HPO4, 0.5 M KCl and lysed using a BioSpec BeadBeater and following the manufacturer's instructions. […]
# as §2
# [9] = system: L-glutamate 5-semialdehyde (GSA); assay: In vitro substrate conversion assay, step A3; format: biochemical; set-up: key: +: measureable activity detected in the assay; −: no measurable activity detected in the assay; conditions: BDO biosynthetic pathway step A3
# Procedure: In Vitro Substrate Conversion. Most of the enzyme assays described above are based on recording changes in absorbance at a given wavelength. In addition to such spectrophotometric readouts, these assays can also be analyzed by more direct methods using an endpoint assay where the reaction is terminated after a given period of time and the mixture is analyzed via HPLC or LC-MS methods.
# as §3
# [10] = 90 g/L and 135 g/L of BDO, loss of cell viability
molecule,measurement,setting,value
"OCCCCO [BDO, 1,4-butanediol]",growth in the presence of BDO,[1],grew better than the rest of strains
same,growth in the presence of BDO,[2]; 20 g/L of BDO,able to grow
same,growth in the presence of BDO,[2]; [10],completely inhibited growth
same,tolerance to BDO,[3],greater tolerance than E. coli
same,cell density in the presence of BDO,"[4]; 20 g/L of BDO, relative to no-BDO control",approximately twice of the control
same,growth in the presence of BDO,"[4]; 90 g/L and 135 g/L BDO, FIG. 12B",grew poorly
same,growth in the presence of BDO,[5]; 90 g/L and 135 g/L of BDO,grew better than the rest of strains
same,growth in the presence of BDO,"[5]; 135 g/L BDO, compared with Z. mobilis",grew better than Z. mobilis
same,growth in the presence of BDO,[6]; 20 g/L of BDO,able to grow
same,growth in the presence of BDO,[6]; [10],completely inhibited growth
"DhaTCf: Enzyme candidate for BDO biosynthetic pathway step A6, SEQ ID NO. 48 (protein, listed as Citrobacter freundii) MSYRMFDYLVPNVNFFGPNAISVVGERCKLLGGKKALLVTDKGLRAIKDGAVDKTLTHLREAGIDVVVFDGVEPNPKDTNVRDGLEVFRKEHCDIIVTVGGGSPHDCGKGIGIAATHEGDLYSYAGIETLTNPLPPIVAVNTTAGTASEVTRHCVLTNTKTKVKFVIVSWRNLPSVSINDPLLMLGKPAPLTAATGMDALTHAVEAYISKDANPVTDAAAIQAIRLIARNLRQAVALGSNLKARENMAYASLLAGMAFNNANLGYVHAMAHQLGGLYDMPHGVANAVLLPHVARYNLIANPEKFADIAEFMGENTDGLSTMDAAELAIHAIARLSADIGIPQHLRDLGVKEADFPYMAEMALKDGNAFSNPRKGNEKEIAEIFRQAF",Enzyme Assay,4-hydroxybutanal,−
"NosEN: Enzyme candidate for BDO biosynthetic pathway step A3, SEQ ID NO. 16 (protein, listed as Nostoc sp.) MPLAAVMTAPNQPVEVQQLPDPILEKGGIILETLYSEVCGTDVHLLHGRLEGVPYPIIPGHFSVGRVVETGGAVSDVNGKLIQPGAIATFLDVHETCYNCWYCLVAKASTRCPQRKVYGVTYSAKDGLLGGWSELIYLKPGVKVLTLPEEVSPKQFIAGGCALPTALHAIDRAQIQIGDVVVVQGCGPVGLSAAILALLSGAGKVIVIDKFESRLVVAKSFGVDETLAIKADDPRQHIERVLELTNGHGADVTIEATGIPIAVKEGLNMTRNGGRYVIVGHYTNTGEILINPHLEINLKHIDIRGTWGIDFSHFYRMIELLKRHSDSSKNIAWSSIISRSYTLKEINQALADVEQGSVLKAVIQPNLS",Bioconversion Assay,[7],+
same,Enzyme Assay,[8],−
same,In Vitro Substrate Conversion Assay,[9],+
"NosENp: nosE alcohol dehydrogenase from Nostoc punctiforme, step A3 enzyme candidate, SEQ ID NO. 18 (protein, Nostoc punctiforme) MPLAAVMTAPNQPVEVQQLPEPILEKGGIIIETLYSEVCGTDVHLLHGRLEGVPYPIIPGHFSVGRVVETGGAVSDVNGKLIQPGAIATFLDVHETCYNCWYCLVAKASTRCPKRKVYGVTYSAKDGLLGGWSELIYLKPGVKVLTLPEEVSPKQFIAGGCALPTALHAIDRAQIQIGDVVVVQGCGPVGLSAAILALLSGAGKVIVIDKFESRLVVAKSFGVDETLAIRADDPRQHIERVLELTNGHGADVTIEATGIPIAVKEGLNMTRNGGRYVIVGHYTNTGEILINPHLEINLKHIDIRGTWGIDFSHFYRMIELLKRHSDSSKNIAWSSIISRSYTLKEINQALVDVEQGSVLKAVIQPNLS",Bioconversion Assay,[7],+
same,Enzyme Assay,[8],+
same,In Vitro Substrate Conversion Assay,[9],+
"NosEAv: Enzyme candidate for BDO biosynthetic pathway step A3, SEQ ID NO. 20 (protein, listed as Anabaena variabilis) MPKAAVMSAPNQPVVVQQLPDPILEKGGIIVETLYSEVCGTDVHLLHGRLEGVPYPIIPGHFSVGRVVETGGAVSDVNSNLIQPGAIATFLDVHETCYNCWYCLVAKASTRCPQRKVYGVTYSAKEGLLGGWSELIYLKPGVKVLTLPAEVSPKQFIAGGCALPTALHAIDRAQIQIGDVVVVQGCGPVGLSVAILALLSGAGKVIVIDKFESRLAVAKSFGVDETLAIKADDPRQHIERVLELTNGHGADVIIEATGIPIAVKEGLNMTRNGGRYVIVGHYTNTGEILINPHLEINLKHIDIRGTWGIDFSHFYRMIELLKRHSDPKKNIAWENLISRSYTLNEINQALTDVERGSVLKAVIQPNLS",Bioconversion Assay,[7],+
same,Enzyme Assay,[8],−
same,In Vitro Substrate Conversion Assay,[9],+
"AdhBZm: Enzyme candidate for BDO biosynthetic pathway step A6, SEQ ID NO. 50 (protein, listed as Zymomonas mobilis) MASSTFYIPFVNEMGEGSLEKAIKDLNGSGFKNALIVSDAFMNKSGVVKQVADLLKAQGINSAVYDGVMPNPTVTAVLEGLKILKDNNSDFVISLGGGSPHDCAKAIALVATNGGEVKDYEGIDKSKKPALPLMSINTTAGTASEMTRFCIITDEVRHVKMAIVDRHVTPMVSVNDPLLMVGMPKGLTAATGMDALTHAFEAYSSTAATPITDACALKAASMIAKNLKTACDNGKDMPAREAMAYAQFLAGMAFNNASLGYVHAMAHQLGGYYNLPHGVCNAVLLPHVLAYNASVVAGRLKDVGVAMGLDIANLGDKEGAEATIQAVRDLAASIGIPANLTELGAKKEDVPLLADHALKDACALTNPRQGDQKEVEELFLSAF",Enzyme Assay,4-hydroxybutanal,+
